This is an account of results in a protein production outcome set (Wang et al. 2014).

This series can be described thus: label from the status in PepcDB records.
As to “MAPRKRNPNGSGSIWQRKDGRYEARVYVPQPDGTRKRKTVYGTTWEECDTKRQELVLRDRQGIPTPTRSAKLSEWLPYWLKHYVEPRRKLSTYDKYEVQVRLYLVPLLGTRRLESLSVADVRRFITRVQNAHTAATAKESHRVLRTALTAAVREELITRNVASLVEPPRVKQREIRPWSLEETLSFLEAARSDPLYAAFVLAIAMGLRRGELGGLRWSDVDLDNRVVHVRQQTQRRRGTLYDDDPKSRRIRVVPMPALCIAPLRWHRLRQRETFARTGVAWCEAGYVFATRNGRPVEPRNVYRSFTRVAADAGLRVVRLHDARHGCATLLTAAGVAPRVIMEILGHSQISITMDVYTHVVHDTQREAISHMDRLLKRRLPTSLSGGAGSIEFP”, the protein production result is reported as “failed”. On to “MSLSGVSHVSLTVRDLDISCRWYTEILDWKELVRGRGDTTSFAHGVLPGGLSIVLREHDGGGTDLFDETRPGLDHLSFSVESMTDLDVLEERLAKAGAAFTPTQELPFGWILAFRDADNIALEAMLGREGHHHHHH”, for which the protein production entry is reported as “not failed”. As for “MAAPLRIQSDWAQALRKDEGEAWLSCHPPGKPSLYGSLTCQGIGLDGIPEVTASEGFTVNEINKKSIHISCPKENASSKFLAPYTTFSRIHTKSITCLDISSRGGLGVSSSTDGTMKIWQASNGELRRVLEGHVFDVNCCRFFPSGLVVLSGGMDAQLKIWSAEDASCVVTFKGHKGGILDTAIVDRGRNVVSASRDGTARLWDCGRSGCLGVLADCGSSINGVAVGAADNSINLGSPEQMPSEREVGTEAKMLLLAREDKKLQCLGLQSRQLVFLFIGSDAFNCCTFLSGFLLLAGTQDGNIYQLDVRSPRAPVQVIHRSGAPVLSLLSVRDGFIASQGDGSCFIVQQDLDYVTELTGADCDPVYKVATWEKQIYTCCRDGLVRRYQLSDL”, the protein production result is recorded as “failed”.

For “MSLSVLDAPASQPCCPTGVTPEPSSRGPSARRVALLLAGALVAWIVAYAAAHPLSRWLTFGLLGLAEGSHLGESLAFFLYDVPKVLLLLTLIVFLVGIVRSFFTAERTRAILVGKRESVGNVVAALLGVVTPFCSCSAIPLFLGFVEVGVPLGVTFSFLVSAPMVNEVALVLLLGLFGWKVAALYLVTGLTIAILAGFVLGRMKLERHVEPWVYESMKGEARFEKEHLGFAGRVERGLQAVREVVGKVWPWVVAGIAVGAGIHGYVPEGLLASFMGKSAWWSVPAAVALGVPMYSNAAGIIPVVEALLGKGAALGTVLAFMMAVIGLSLPEIVILRKVLRPPLILAFVGVVASGILLVGWLFNAVL”, the protein production result was “failed”. Take “MDDVLRRNPLFAALDDEQSAELRASMSEVTLARGDTLFHEGDPGDRLYVVTEGKVKLHRTSPDGRENMLAVVGPSELIGELSLFDPGPRTATGTALTEVKLLALGHGDLQPWLNVRPEVATALLRAVARRLRKTNDAMSDLVFSDVPGRVARALLDLSRRFGVQSEEGIHVVHDLTQEELAQLVGASRETVNKALADFAQRGWLRLEARAVILLDVERLAKRSR”: the protein production entry was “failed”. As for “MNIIIATTKSWNIKNAQKFKKENESKYNTTIITNKDELTFEKVKLINPEYILFPHWSWIIPKEIFENFTCVVFHMTDLPFGRGGSPLQNLIERGIKKTKISAIKVDGGIDTGDIFFKRDLDLYGTAEEIFMRASKIIFNDMIPELLTKRPVPQKQEGEATVFQRRKPEQSEISPDFDLEKIYDYIRMLDGEGYPRAFIKYGKYRLEFSRASMKNGKIIADVEIIEGDENE”, the protein production entry is given as “not failed”.

Regarding “MSVAILAQEKLGDCVLLTPLVRNLRQAFPDLEIHLITFSRASANFFMNDPQVTAVHLVKKQPRRYFREVLSRKFDLLFNTKDHPSTWFLLQSALIRARFKVGHNNPFHEGLYDRLLDTEFHAHMAVKNCALLPLLGVTADTEACRPSLEHHHHHH”, the protein production result is “not failed”. Take “KKLANADANNDSRVYVAVDGDIGVGYATMKVFMLSNDEYKILSGKYPRQVPVVMLDQIAVDKAYQGKGIGKRLMRKVLEATVLVNELAAAKGLALWAHPRAKDFYESLGFEAIPDATKQVQDVELTLMFIHVETILDALK”: the protein production entry was “failed”. On to “MDLLIALLPALFWGSVVLINVLVGGGPYNQIRGTTLGTLIIGIILLLTGNAKFDDLAVIIVGLISGAFWALGQGYQLKSISLIGVSKTMPISTGLQLVGTTLFSAIFLGEWSTGIQVTLGLVAMVLLVIGIALTSIKGKNEASGGNNKFGKAIPILIISTVGYVVYVVVAQIFGVDGMNALFFQSIGMAIGGLILSAKHETSVKSTMWNIIPGVIWGIGNLFMFYSQPKVGVATSFSFSQLLVIVSTLGGIFLLGERKDKRQMIGIWAGIVLIIIAAFILGNLKG”, for which the protein production entry was “failed”. The entry for “MPKLSVIVPTFNRQVLLEKAIKSIQNQDFKDLEIIVSDDNSSDDTKSVVQNLQKDDDRIKYFLNQNYKQGPNGNKNNGLDQASGEFVTFLDDDDELLSGALSTLMQKANEGYAHVFGNCLIEKEGNLSKEFSGKGLEKDSEISKKDFLMAKFSGEFFSVFKKSLLENKRFNEEFYGNEATLWVNLYKEKSFYIHKAFRIYRIFRQDSVTLGASKNAYRVYLGYLELAKILENELRMSKDKDYKKTCASYYKMAAYYAKLAKNYKALYKCLFKSLSIKINAPALILLILSIIPNNMIEKLSKIRVALCKN” is “failed”; for “MKRSSLLVRMVISIFLVFLILLALVGTFYYQSSSSAIEATIEGNSQTTISQTSHFIQSYIKKLETTSTGLTQQTDVLAYAENPSQDKVEGIRDLFLTILKSDKDLKTVVLVTKSGQVISTDDSVQMKTSSDMMAEDWYQKAIHQGAMPVLTPARKSDSQWVISVTQELVDAKGANLGVLRLDISYETLEAYLNQLQLGQQGFAFIINENHEFVYHPQHTVYSSSSKMEAMKPYIDTGQGYTPGHKSYVSQEKIAGTDWTVLGVSSLEKLDQVRSQLLWTLLGASVTSLLVCLCLVWFSLKRWIAPLKDLRETMLEIASGAQNLRAKEVGAYELREVTRQFNAMLDQIDQLMVAIRSQEETTRQYQLQALSSQINPHFLYNTLDTIIWMAEFHDSQRVVQVTKSLATYFRLALNQGKDLICLSDEINHVRQYLFIQKQRYGDKLEYEINENVAFDNLVLPKLVLQPLVENALYHGIKEKEGQGHIKLSVQKQDSGLVIRIEDDGVGFQDAGDSSQSQLKRGGVGLQNVDQRLKLHFGANYHMKIDSRPQKGTKVEIYINRIETS” it is “failed”; for “MEVLRYRSRPIVGGEAEGPAVVIDSLSFYGEVDPETGVTSGGKPLAGRVAAIRRSRGSTVGSYVIYALKENGVAPLAILMERAEPIVIAGCVLAGIPLYDGLPPEFFERVRDGYRVRVHSDGLVEVLGPGQP” it is “failed”. For “MTLNAKGESNQILVDKEVHSTNLLLDIDEKPELFQGLLLSFQHVFAMFGATILVPLILGMPVSVALFASGCGTLIYQVATKFKVPVYLGSSFAYITAMALAMKQMHGDISAAQTGILFVGLIYVVVATVIKFVGNSWVDKILPPIIIGPMIIVIGLGLANSAVTNAGFVAKGDWRKMLVAVVTFLIAAFINTKGKGFIKIIPFLFAIIGGYILSIILGLVDLSPVEKAAWFELPKFYLPFKTGLFHSYKLYFGPEMLAILPISIVTIAENIGDHTVLGQICGRNFLKKPGLNRLLIGDGLATAFSALIGGPAETTYGENTGVIGMTRIASVTVIRNAAFIAIAFSFFGKFTALISTIPSAVLGGMAILLYGVIASNGLKVLIENRVNFAEVRNLIIASSMLVLGLGGAVLDLGALTLSGTALSAIVGIILNLILPKESMKS”, the protein production result is on record as “not failed”.

Take “MKAILRASRIGRVILRYRLDALLEGTPAERWLRLAKPFVPRASAEIAAQSRGARLRLALQELGPIFVKFGQILSTRRDLIPADVAEELTLLQDRVKPFDGQAARLIVEAALGLPVSVAFASFDTVPLASASIAQVHAATLPPDANGVRREVVVKVLRPEIERQIDADIALLHSLATLVERTHPRADKIRPREVVAEIEGTLAAELDLQREGANASVLRRFWEGSDDLYVPEVIWSHTAERALTLERVYGIPSDDIAKLDAAGIDRKALAAKGVRVFYTQVFRDNFFHADAHAGNIWVDSDPERRLNPRFIALDFGIMGQLSQEDQYYLAENFMAIFHKDYRRMAELHVEAGWMPSNVRIDELEAAARSVCEPYFNRPLSEISLAQVLIKLFRVAQRYELTLQPQLILLQKTLLNIEGVGRQLDPRLDIWAVARPVLERILRERYSPRRVLRELSKRLPEIMTHAPDMPRLVYSWLTQQVEGRHQIAIRSPELLALDLSLRKLQTRVVTAITGSGLLVVAAVLYGLHPDGWYLGTVPVWSWISGGAGSAALLVAWLRR”: the protein production result is “failed”. Regarding “ITARRRGELRRDALLKMGDQLRSLTTIQDMTGIASEIVGRALGAVRAGFGRVDPGEESVIIENDWSAAGYASLAGWHSLSDHPSFETANATKQPVVVADVAAAPPDNLSSQAKDDPGIGSLAVIPIENHDGSTALFFVHVAEPRDWSDDDLAFLRNVGDRLAAGVGRLDAEALQHTLNLELSHRMKNTLAMVMAIARQTLRSIP”, the protein production entry was “failed”.

With “MELLLSKVTDAGIDPSSVSGEEAITLWEHIGRHIASTSREKAHCLIISAEYRREIKQLCDSIEELRQALELLSLPEDVEDILSVKASLSERLVEVGDYNSALTEYIASTNIAVEYGFIDEYVLAIIGMGNLCDAYGDHNRALRYYQKIDAIDHAISSRSLRLRYKLYMLACYISLKRVAEASELLGECEELSILVSDKNLAAQTHLYRAKLHRLQEEYSEALLSISSIKYTTGSATTYWLSTMVKIETAYCLNGVGHTSLANLLLESIGKRIKKHSSPILAKRFYNAMSKVSASQGQFQQALSCEKRAFRIESDLIKHIPISELGAAQLRRLSRFELQLKLILSEIENKELKETTKQHKNTVAQLQQDVFTDPLTSLHNRRWLEVKLKDMLLHDTPFALMVIDIDHFKSINDELSHLVGDKAIKSVSQELAAYFKFKGASCVRFGGEEFLVILENSQLERAEMHAENYRERIFKYAWRDILGERGLTVSIGITLHREGENTQRTFYRADKALYRAKANGRNQVCTEL”, the protein production result is recorded as “failed”. For the sequence “MPYVDRQNRICGFLDIEDNENSGKFLRRYFILDTQANCLLWYMDNPQNLAVGAGAVGSLQLTYISKVSIATPKQKPKTPFCFVINALSQRYFLQANDQKDLKDWVEALNQASK”, the protein production result is reported as “not failed”. In the case of “MENLLARLLFAQWFPGLIQLKNYQKEWLVNDFRAAFSVVAVALPVAIAYAQLTGVSAIVGLYSCVLPMLVYALMGTSRQLIVGPDAATCAVIAAVVTPIAAGDPTKHWQLVMTMTAMTGIWCVLASRFKLGIFADFLSRPILLGLLNGVALTIIVGQFAKVVGLKYEQRYLLERLWEAPQRLAELHWPTVALSVATVVVYLVTKRYRPTWPAAMLAILVTTASVWLLHLQEMDVAVVGLTQGGFPQFQAPQFELGEVRELVVPALNLAIVSFVSMMLTARSFAAKNGYDIDANKEFQALGFANIASAFSQGFAISGADSRTAVNDANGGKSQLVSIVAAITIAIIAVFIYEPLQFIPIASLGVVLIIASLSLLDLKAIWILKTRDKDAFYLAIITFISVLVIGVIPGITLAVLLGLFQFLRIVMRPSDQLLGLDEKGTIRTIDETGKASPIPGMVIYRFNSPLTYFNAPYFKRRLLEHAEQNKDVSCVVVDAVSSFTHLDLSVMATLADIHEVLKKRGIRLVLAGRKRRLRQWCELTGISTSEGGILLRADMYLAIKLSGSYLSAVGEGIVPTVQKEPDLEQPPKPIPEVA” it was “failed”; in that of “MKYVPSFKSLKETENGWELQVSWMITVTLRVTMQKSRDEITYLIKKTEGLVKINSYLRFIILPTRDRTVVRLTFFYKGPFERVAKRQTEEFYRRGVEIFKRDLESVQVERKEERGAPSNAKLLLNMRTLLSTQIGKDQLDEVLEQAMLWSVNSQVFVLISDGSRRVELRFRNGDLESGGDLSSLGDKITVIVKGDRAD”, “failed”; in that of “MPVRVIVDSSACLPTHVAEDLDITVINLHVMNNGEERSTSGLSSLELAASYARQLERGGDDGVLALHISKELSSTWSAAVTAAAVFDDDSVRVVDTSSLGMAVGAAAMAAARMAKDGASLQECYDIAVDTLKRSETWIYLHRIDEIWKSGRISTATAMVSTALATRPIMRFNGGRMEIAAKTRTQSKAFAKLVELAQIRADGEPVFIAIGQNEAREAAKQLEELLRNALPEGSSFMSVDIDPTLAVHSGPGAVSVSAVFANQAPELSTGKAGAK”, “not failed”.
